Measured values taken from patent US20160264649A1.

Tests used:
Test in all cases: cell-based or functional assay
[1] = molecular target: HIV-1 Env of isolate 92UG001 (subtype D) (HIV-1)
[2] = molecular target: HIV-1 Env of isolate 92UG005 (subtype D) (HIV-1)
[3] = molecular target: HIV-1 Env of isolate 92UG024 (subtype D) (HIV-1)
[4] = molecular target: HIV-1 Env of isolate 92UG046 (subtype D) (HIV-1)
[5] = molecular target: HIV-1 Env of isolate 92UG114 (subtype D) (HIV-1)
[6] = molecular target: HIV-1 Env of isolate 98CN006 (subtype CRF08_BC) (HIV-1)
[7] = molecular target: HIV-1 Env of isolate 98CN009 (subtype CRF07_BC) (HIV-1)
[8] = molecular target: HIV-1 Env of isolate MGRM-D-001 (subtype D) (HIV-1)
[9] = molecular target: HIV-1 Env of isolate MGRM-D-002 (subtype D) (HIV-1)
[10] = molecular target: HIV-1 Env of isolate MGRM-D-003 (subtype D) (HIV-1)
[11] = molecular target: HIV-1 Env of isolate MGRM-D-004 (subtype D) (HIV-1)
[12] = molecular target: HIV-1 Env of isolate MGRM-D-005 (subtype D) (HIV-1)
[13] = molecular target: HIV-1 Env of isolate MGRM-D-008 (subtype D) (HIV-1)
[14] = molecular target: HIV-1 Env of isolate MGRM-D-011 (subtype D) (HIV-1)
[15] = molecular target: HIV-1 Env of isolate MGRM-D-012 (subtype D) (HIV-1)
[16] = molecular target: HIV-1 Env of isolate MGRM-D-013 (subtype D) (HIV-1)
[17] = molecular target: HIV-1 Env of isolate MGRM-D-014 (subtype D) (HIV-1)
[18] = molecular target: HIV-1 Env of isolate MGRM-D-016 (subtype D) (HIV-1)
[19] = molecular target: HIV-1 Env of isolate MGRM-D-018 (subtype D) (HIV-1)
[20] = molecular target: HIV-1 Env of isolate MGRM-D-019 (subtype D) (HIV-1)
[21] = molecular target: HIV-1 Env of isolate MGRM-D-020 (subtype D) (HIV-1)
[22] = molecular target: HIV-1 Env of isolate MGRM-D-021 (subtype D) (HIV-1)
[23] = molecular target: HIV-1 Env of isolate MGRM-D-022 (subtype D) (HIV-1)
[24] = molecular target: HIV-1 Env of isolate MGRM-D-024 (subtype D) (HIV-1)
[25] = molecular target: HIV-1 Env of isolate MGRM-D-026 (subtype D) (HIV-1)
[26] = molecular target: HIV-1 Env of isolate MGRM-D-028 (subtype D) (HIV-1)
[27] = molecular target: HIV-1 Env of isolate MGRM-D-029 (subtype D) (HIV-1)
[28] = molecular target: HIV-1 Env of isolate MGRM-F1-004 (subtype F) (HIV-1)
[29] = molecular target: HIV-1 Env of isolate MGRM-F1-006 (subtype F) (HIV-1)
[30] = molecular target: HIV-1 Env of isolate MGRM-F1-008 (subtype F) (HIV-1)
[31] = molecular target: HIV-1 Env of isolate MGRM-F1-010 (subtype F) (HIV-1)
[32] = molecular target: HIV-1 Env of isolate MGRM-F1-012 (subtype F) (HIV-1)
[33] = molecular target: HIV-1 Env of isolate MGRM-F1-013 (subtype F) (HIV-1)
[34] = molecular target: HIV-1 Env of isolate MGRM-F1-014 (subtype F) (HIV-1)
[35] = molecular target: HIV-1 Env of isolate MGRM-F1-015 (subtype F) (HIV-1)
[36] = molecular target: HIV-1 Env of isolate MGRM-F1-016 (subtype F) (HIV-1)
[37] = molecular target: HIV-1 Env of isolate MGRM-F1-017 (subtype F) (HIV-1)
[38] = molecular target: HIV-1 Env of isolate MGRM-F1-018 (subtype F) (HIV-1)
[39] = molecular target: HIV-1 Env of isolate MGRM-F1-020 (subtype F) (HIV-1)
[40] = molecular target: HIV-1 Env of isolate MGRM-F1-021 (subtype F) (HIV-1)
[41] = molecular target: HIV-1 Env of isolate MGRM-F1-022 (subtype F) (HIV-1)
[42] = molecular target: HIV-1 Env of isolate MGRM-F1-023 (subtype F) (HIV-1)
[43] = molecular target: HIV-1 Env of pseudovirus isolate MGRM-G-001 (subtype G) (HIV-1)
[44] = molecular target: HIV-1 Env of pseudovirus isolate MGRM-G-004 (subtype G) (HIV-1)
[45] = molecular target: HIV-1 Env of pseudovirus isolate MGRM-G-006 (subtype G) (HIV-1)
[46] = molecular target: HIV-1 Env of pseudovirus isolate MGRM-G-009 (subtype G) (HIV-1)
[47] = molecular target: HIV-1 Env of pseudovirus isolate MGRM-G-011 (subtype G) (HIV-1)
[48] = molecular target: HIV-1 Env of pseudovirus isolate MGRM-G-013 (subtype G) (HIV-1)
[49] = molecular target: HIV-1 Env of pseudovirus isolate MGRM-G-014 (subtype G) (HIV-1)
[50] = molecular target: HIV-1 Env of pseudovirus isolate MGRM-G-015 (subtype G) (HIV-1)
[51] = molecular target: HIV-1 Env of pseudovirus isolate MGRM-G-016 (subtype G) (HIV-1)
[52] = molecular target: HIV-1 Env of pseudovirus isolate MGRM-G-017 (subtype G) (HIV-1)
[53] = molecular target: HIV-1 Env of pseudovirus isolate MGRM-G-019 (subtype G) (HIV-1)
[54] = molecular target: HIV-1 Env of pseudovirus isolate MGRM-G-024 (subtype G) (HIV-1)
[55] = molecular target: HIV-1 Env of pseudovirus isolate MGRM-G-025 (subtype G) (HIV-1)
[56] = molecular target: HIV-1 Env of pseudovirus isolate MGRM-G-027 (subtype G) (HIV-1)
[57] = molecular target: HIV-1 Env of pseudovirus isolate MGRM-G-028 (subtype G) (HIV-1)
[58] = molecular target: envelope of aMLV pseudovirus (negative control)

B1: PGT-130 (antibody, V domains shown)
VH: QVQLQESGPGLVKPAETLSLTCSVSGESINTGHYYWGWVRQVPGKGLEWIGHIHYTTAVLHNPSLKSRLTIKIYTLRNQITLRLSNVTAADTAVYHCVRSGGDILYYYEWQKPHWFSPWGPGIHVTVSS
VL: QSALTQPPSASGSLGQSVTISCNGTSSDIGGWNFVSWYQQFPGRAPRLIIFEVNKRPSGVPGRFSGSKSGNSASLTVSGLQSDDEGQYFCSSLFGRWDVVFGGGTKLTVL
Q: Which IC50 (neutralization) [1] does the source give for B1 here?
A: Its IC50 (neutralization) is > 50 µg/mL.

Q: What about the IC50 (neutralization) [2] of the same binder?
A: The IC50 (neutralization) was 0.959 µg/mL.

Q: What about the IC50 (neutralization) [3] of the same binder?
A: Its IC50 (neutralization) is > 50 µg/mL.

Q: And the IC50 (neutralization) [4]?
A: Its IC50 (neutralization) is > 50 µg/mL.

Q: What about the IC50 (neutralization) [5] of the same binder?
A: The IC50 (neutralization) was > 50 µg/mL.

Q: What about the IC50 (neutralization) [6] of the same binder?
A: Its IC50 (neutralization) is 0.258 µg/mL.

Q: What about the IC50 (neutralization) [7] of the same binder?
A: Its IC50 (neutralization) is 0.136 µg/mL.

Q: What about the IC50 (neutralization) [8] of the same binder?
A: Its IC50 (neutralization) is > 50 µg/mL.

Q: And the IC50 (neutralization) [9]?
A: Its IC50 (neutralization) is 0.869 µg/mL.

Q: What about the IC50 (neutralization) [10] of the same binder?
A: Its IC50 (neutralization) is 0.651 µg/mL.

Q: What about the IC50 (neutralization) [11] of the same binder?
A: The IC50 (neutralization) was 1.21 µg/mL.

Q: And the IC50 (neutralization) [12]?
A: Its IC50 (neutralization) is > 50 µg/mL.

Q: What about the IC50 (neutralization) [13] of the same binder?
A: Its IC50 (neutralization) is > 50 µg/mL.

Q: What about the IC50 (neutralization) [14] of the same binder?
A: Its IC50 (neutralization) is 0.019 µg/mL.

Q: And the IC50 (neutralization) [15]?
A: The IC50 (neutralization) was > 50 µg/mL.

Q: What about the IC50 (neutralization) [16] of the same binder?
A: The IC50 (neutralization) was 0.429 µg/mL.

Q: What about the IC50 (neutralization) [17] of the same binder?
A: The IC50 (neutralization) was 0.061 µg/mL.

Q: And the IC50 (neutralization) [18]?
A: Its IC50 (neutralization) is > 50 µg/mL.

Q: What about the IC50 (neutralization) [19] of the same binder?
A: The IC50 (neutralization) was 0.049 µg/mL.

Q: What about the IC50 (neutralization) [20] of the same binder?
A: Its IC50 (neutralization) is > 50 µg/mL.

Q: What about the IC50 (neutralization) [21] of the same binder?
A: The IC50 (neutralization) was 24.7 µg/mL.

Q: And the IC50 (neutralization) [22]?
A: Its IC50 (neutralization) is 0.156 µg/mL.

Q: And the IC50 (neutralization) [23]?
A: The IC50 (neutralization) was > 50 µg/mL.

Q: And the IC50 (neutralization) [24]?
A: Its IC50 (neutralization) is > 50 µg/mL.

Q: What about the IC50 (neutralization) [25] of the same binder?
A: Its IC50 (neutralization) is > 50 µg/mL.

Q: What about the IC50 (neutralization) [26] of the same binder?
A: Its IC50 (neutralization) is 0.825 µg/mL.

Q: And the IC50 (neutralization) [27]?
A: Its IC50 (neutralization) is > 50 µg/mL.

Q: And the IC50 (neutralization) [28]?
A: Its IC50 (neutralization) is 0.023 µg/mL.

Q: And the IC50 (neutralization) [29]?
A: Its IC50 (neutralization) is > 50 µg/mL.

Q: And the IC50 (neutralization) [30]?
A: Its IC50 (neutralization) is 0.065 µg/mL.

Q: What about the IC50 (neutralization) [31] of the same binder?
A: The IC50 (neutralization) was > 50 µg/mL.

Q: And the IC50 (neutralization) [32]?
A: Its IC50 (neutralization) is > 50 µg/mL.

Q: What about the IC50 (neutralization) [33] of the same binder?
A: The IC50 (neutralization) was > 50 µg/mL.

Q: And the IC50 (neutralization) [34]?
A: The IC50 (neutralization) was 11.8 µg/mL.

Q: And the IC50 (neutralization) [35]?
A: Its IC50 (neutralization) is > 50 µg/mL.

Q: And the IC50 (neutralization) [36]?
A: The IC50 (neutralization) was > 50 µg/mL.

Q: What about the IC50 (neutralization) [37] of the same binder?
A: Its IC50 (neutralization) is > 50 µg/mL.

Q: What about the IC50 (neutralization) [38] of the same binder?
A: Its IC50 (neutralization) is > 50 µg/mL.

Q: And the IC50 (neutralization) [39]?
A: Its IC50 (neutralization) is 9.73 µg/mL.

Q: And the IC50 (neutralization) [40]?
A: The IC50 (neutralization) was > 50 µg/mL.

Q: And the IC50 (neutralization) [41]?
A: Its IC50 (neutralization) is > 50 µg/mL.

Q: What about the IC50 (neutralization) [42] of the same binder?
A: Its IC50 (neutralization) is 0.05 µg/mL.

Q: What about the IC50 [43] of the same binder?
A: Its IC50 is 0.0198 µg/mL.

Q: What about the IC50 [44] of the same binder?
A: The IC50 was > 50 µg/mL.

Q: And the IC50 [45]?
A: The IC50 was > 50 µg/mL.

Q: What about the IC50 [46] of the same binder?
A: The IC50 was > 50 µg/mL.

Q: And the IC50 [47]?
A: The IC50 was > 50 µg/mL.

Q: And the IC50 [48]?
A: The IC50 was > 50 µg/mL.

Q: And the IC50 [49]?
A: Its IC50 is 2.23 µg/mL.

Q: And the IC50 [50]?
A: The IC50 was > 50 µg/mL.

Q: And the IC50 [51]?
A: Its IC50 is > 50 µg/mL.

Q: What about the IC50 [52] of the same binder?
A: The IC50 was > 50 µg/mL.

Q: And the IC50 [53]?
A: The IC50 was 27.9 µg/mL.

Q: What about the IC50 [54] of the same binder?
A: The IC50 was 5.84 µg/mL.

Q: What about the IC50 [55] of the same binder?
A: Its IC50 is 8.45 µg/mL.

Q: What about the IC50 [56] of the same binder?
A: The IC50 was 4.14 µg/mL.

Q: And the IC50 [57]?
A: Its IC50 is 0.074 µg/mL.

Q: And the IC50 [58]?
A: Its IC50 is > 50 µg/mL.
